The results in this text go back to patent US20040146507A1.

In test [1] the target is human CD18 (human) (UniProt P05107). In words: cell-based or functional assay.
For test [2], the target named is rhesus CD18 (rhesus) (UniProt H9Z8N5). In words: cell-based or functional assay.
Test [3] has the same target. In words: saturation binding, rhesus leukocytes, donor 1; Kd(app).
The target is the same in test [4]. In words: saturation binding, rhesus leukocytes, donor 2; Kd(app).

Chain of human CD18 (human) (P05107 23-769): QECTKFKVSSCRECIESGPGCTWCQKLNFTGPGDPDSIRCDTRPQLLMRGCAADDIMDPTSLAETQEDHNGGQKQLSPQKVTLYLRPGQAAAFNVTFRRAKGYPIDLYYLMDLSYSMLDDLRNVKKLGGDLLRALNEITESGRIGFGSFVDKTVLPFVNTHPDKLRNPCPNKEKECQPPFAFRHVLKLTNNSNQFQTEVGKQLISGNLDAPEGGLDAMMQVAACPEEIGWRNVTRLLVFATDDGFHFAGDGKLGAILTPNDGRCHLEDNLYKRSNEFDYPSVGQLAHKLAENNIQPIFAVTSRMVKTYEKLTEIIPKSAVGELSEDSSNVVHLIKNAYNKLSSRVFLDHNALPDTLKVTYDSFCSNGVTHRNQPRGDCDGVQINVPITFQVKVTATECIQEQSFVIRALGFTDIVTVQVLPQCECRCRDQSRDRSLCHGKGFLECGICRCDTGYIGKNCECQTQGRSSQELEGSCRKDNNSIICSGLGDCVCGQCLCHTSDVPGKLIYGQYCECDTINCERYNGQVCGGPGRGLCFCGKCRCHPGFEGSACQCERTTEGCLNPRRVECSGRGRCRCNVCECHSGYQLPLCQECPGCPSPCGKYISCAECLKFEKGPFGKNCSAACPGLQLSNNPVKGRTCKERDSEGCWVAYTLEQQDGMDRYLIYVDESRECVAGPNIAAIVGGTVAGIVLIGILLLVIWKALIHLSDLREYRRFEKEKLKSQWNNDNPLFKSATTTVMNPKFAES

With murine anti-human CD18 antibody MHM23, the IC50, blocking of cell adhesion, Rh/HuCD11a: HuK in test [1] was determined as 1.4 nM. Moreover, in test [2], the IC50, blocking of cell adhesion, RhLy: HuICAM amounted to 1.2 nM and the IC50, blocking of cell adhesion, RhLy: HuK was 1.6 nM. In test [3], this substance displayed a Kd of 3.9 nM. Further, the Kd in test [4] was found to be 4.5 nM.
